For assay [1], the target named is C-terminally biotinylated IL-13Rα1 (UniProt P78552). Description: SPR.
Assay [2] addresses C-terminally biotinylated IL-13Rα2 (human) (UniProt Q14627). As to the kind of experiment: SPR. (In general: In SPR one partner is held on a chip, and binding of the other changes the refractive index at the surface.)
Assay [3] addresses T1, Human IL-13 (amino acids 21–132), wild type, fully glycosylated (human, UniProt P35225 35-146, fully glycosylated). Description: ITC. (In general: Isothermal titration calorimetry measures the heat released or taken up as one component is titrated into another.)
The target in the next assay is IL-13 K104A (human). Description: ITC.
Another assay concerns the target IL-13 F107A (human). Description: ITC.
For assay [4], the target named is T1, Human IL-13 (amino acids 21–132), wild …. As to the kind of experiment: ITC. This is another data set of the same source.

Like-named read-outs stand apart in the source and are kept apart here.

Regarding IL-13 D87A (ligand), in assay [1], the koff (as a rule, the first-order rate constant of dissociation) turned out to be 0.00751 s⁻¹ and the kon (commonly the second-order rate constant of association) came out at 2.74e+06 M⁻¹ s⁻¹.
In assay [1], IL-13 E15A (ligand) showed a koff of 0.00445 s⁻¹ and a kon of 2.82e+06 M⁻¹ s⁻¹.
Take IL-13 F107A (ligand): in assay [2], the koff came out at 0.000945 s⁻¹ and the kon came to 1.15e+07 M⁻¹ s⁻¹.
Taken in the same sequence, the figures for IL-13 I14A (ligand) were 0.000152 s⁻¹ and 1.79e+07 M⁻¹ s⁻¹.
Regarding IL-13 K104A (ligand), in assay [2], the dissociation rate constant (koff) worked out at 0.00271 s⁻¹ and the kon was found to be 9.64e+06 M⁻¹ s⁻¹.
Turning to IL-13 K105A (ligand), in assay [1], the koff amounted to 0.00771 s⁻¹ and the on-rate (kon) stood at 1.31e+06 M⁻¹ s⁻¹. In assay [2], the koff came to 1.06e-05 s⁻¹ and the kon came to 9.16e+06 M⁻¹ s⁻¹.
In assay [1], IL-13 L101A (ligand) returned an off-rate (koff) of 0.00463 s⁻¹ and a kon of 3.53e+06 M⁻¹ s⁻¹.
In assay [1], IL-13 R11A (ligand) returned a koff of 0.00487 s⁻¹ and a kon of 1.87e+06 M⁻¹ s⁻¹.
IL-13 T88A (ligand) displayed a koff in assay [1] of 0.00488 s⁻¹.
In assay [1], IL-13 V18A (ligand) gave a koff of 0.00443 s⁻¹ and a kon of 3.26e+06 M⁻¹ s⁻¹.

B1: IL-13Rα1 soluble extracellular domain (receptor, UniProt P78552 22-343, looked up)
chain: GGGGAAPTETQPPVTNLSVSVENLCTVIWTWNPPEGASSNCSLWYFSHFGDKQDKKIAPETRRSIEVPLNERICLQVGSQCSTNESEKPSILVEKCISPPEGDPESAVTELQCIWHNLSYMKCSWLPGRNTSPDTNYTLYYWHRSLEKIHQCENIFREGQYFGCSFDLTKVKDSSFEQHSVQIMVKDNAGKIKPSFNIVPLTSRVKPDPPHIKNLSFHNDDLYVQWENPQNFISRCLFYEVEVNNSQTETHNVFYVQEAKCENPEFERNVENTSCFMVPGVLPDTLNTVRIRVKTNKLCYEDDKLWSNWSQEMSIGKKRNST
modifications: fully glycosylated
In the case of B1, in assay [3], the dH is -11.4 kcal/mol and the stoichiometry N (in general, a count of units in the complex or per binding partner) was 0.937.

B2: IL-13Rα2 ectodomain (amino acids 29–331) (receptor, human, UniProt Q14627 29-331, looked up)
chain: EIKVNPPQDFEIVDPGYLGYLYLQWQPPLSLDHFKECTVEYELKYRNIGSETWKTIITKNLHYKDGFDLNKGIEAKIHTLLPWQCTNGSEVQSSWAETTYWISPQGIPETKVQDMDCVYYNWQYLLCSWKPGIGVLLDTNYNLFYWYEGLDHALQCVDYIKADGQNIGCRFPYLEASDYKDFYICVNGSSENKPIRSSYFTFQLQNIVKPLPPVYLTFTRESSCEIKLKWSIPLGPIPARCFDYEIEIREDDTTLVTATVENETYTLKTTNETRQLCFVVRSKVNIYCSDDGIWSEWSDKQCW
modifications: fully glycosylated
Consider B2, for which the dH with IL-13 K104A (human) is -20.4 kcal/mol; in the assay with IL-13 F107A (human) it was -17.1 kcal/mol; in assay [4] it was -20.1 kcal/mol; in assay [3], -20 kcal/mol. Also, the stoichiometry N was 0.884 with IL-13 K104A (human), 0.949 with IL-13 F107A (human), 0.943 in assay [4] and 0.98 in assay [3].

The values above are taken from PMC2850121 (Structure (London, England : 1993), 2010).
